# From publication PMC7117317 (Veterinary Microbiology, 2019)
# Target: BVDV NS5B-His recombinant protein (Bovine viral diarrhea virus 1, strain …, UniProt P19711)
# Assay: ELISA
# BVDV NS5B-His recombinant protein, sequence (P19711 whole entry, looked up): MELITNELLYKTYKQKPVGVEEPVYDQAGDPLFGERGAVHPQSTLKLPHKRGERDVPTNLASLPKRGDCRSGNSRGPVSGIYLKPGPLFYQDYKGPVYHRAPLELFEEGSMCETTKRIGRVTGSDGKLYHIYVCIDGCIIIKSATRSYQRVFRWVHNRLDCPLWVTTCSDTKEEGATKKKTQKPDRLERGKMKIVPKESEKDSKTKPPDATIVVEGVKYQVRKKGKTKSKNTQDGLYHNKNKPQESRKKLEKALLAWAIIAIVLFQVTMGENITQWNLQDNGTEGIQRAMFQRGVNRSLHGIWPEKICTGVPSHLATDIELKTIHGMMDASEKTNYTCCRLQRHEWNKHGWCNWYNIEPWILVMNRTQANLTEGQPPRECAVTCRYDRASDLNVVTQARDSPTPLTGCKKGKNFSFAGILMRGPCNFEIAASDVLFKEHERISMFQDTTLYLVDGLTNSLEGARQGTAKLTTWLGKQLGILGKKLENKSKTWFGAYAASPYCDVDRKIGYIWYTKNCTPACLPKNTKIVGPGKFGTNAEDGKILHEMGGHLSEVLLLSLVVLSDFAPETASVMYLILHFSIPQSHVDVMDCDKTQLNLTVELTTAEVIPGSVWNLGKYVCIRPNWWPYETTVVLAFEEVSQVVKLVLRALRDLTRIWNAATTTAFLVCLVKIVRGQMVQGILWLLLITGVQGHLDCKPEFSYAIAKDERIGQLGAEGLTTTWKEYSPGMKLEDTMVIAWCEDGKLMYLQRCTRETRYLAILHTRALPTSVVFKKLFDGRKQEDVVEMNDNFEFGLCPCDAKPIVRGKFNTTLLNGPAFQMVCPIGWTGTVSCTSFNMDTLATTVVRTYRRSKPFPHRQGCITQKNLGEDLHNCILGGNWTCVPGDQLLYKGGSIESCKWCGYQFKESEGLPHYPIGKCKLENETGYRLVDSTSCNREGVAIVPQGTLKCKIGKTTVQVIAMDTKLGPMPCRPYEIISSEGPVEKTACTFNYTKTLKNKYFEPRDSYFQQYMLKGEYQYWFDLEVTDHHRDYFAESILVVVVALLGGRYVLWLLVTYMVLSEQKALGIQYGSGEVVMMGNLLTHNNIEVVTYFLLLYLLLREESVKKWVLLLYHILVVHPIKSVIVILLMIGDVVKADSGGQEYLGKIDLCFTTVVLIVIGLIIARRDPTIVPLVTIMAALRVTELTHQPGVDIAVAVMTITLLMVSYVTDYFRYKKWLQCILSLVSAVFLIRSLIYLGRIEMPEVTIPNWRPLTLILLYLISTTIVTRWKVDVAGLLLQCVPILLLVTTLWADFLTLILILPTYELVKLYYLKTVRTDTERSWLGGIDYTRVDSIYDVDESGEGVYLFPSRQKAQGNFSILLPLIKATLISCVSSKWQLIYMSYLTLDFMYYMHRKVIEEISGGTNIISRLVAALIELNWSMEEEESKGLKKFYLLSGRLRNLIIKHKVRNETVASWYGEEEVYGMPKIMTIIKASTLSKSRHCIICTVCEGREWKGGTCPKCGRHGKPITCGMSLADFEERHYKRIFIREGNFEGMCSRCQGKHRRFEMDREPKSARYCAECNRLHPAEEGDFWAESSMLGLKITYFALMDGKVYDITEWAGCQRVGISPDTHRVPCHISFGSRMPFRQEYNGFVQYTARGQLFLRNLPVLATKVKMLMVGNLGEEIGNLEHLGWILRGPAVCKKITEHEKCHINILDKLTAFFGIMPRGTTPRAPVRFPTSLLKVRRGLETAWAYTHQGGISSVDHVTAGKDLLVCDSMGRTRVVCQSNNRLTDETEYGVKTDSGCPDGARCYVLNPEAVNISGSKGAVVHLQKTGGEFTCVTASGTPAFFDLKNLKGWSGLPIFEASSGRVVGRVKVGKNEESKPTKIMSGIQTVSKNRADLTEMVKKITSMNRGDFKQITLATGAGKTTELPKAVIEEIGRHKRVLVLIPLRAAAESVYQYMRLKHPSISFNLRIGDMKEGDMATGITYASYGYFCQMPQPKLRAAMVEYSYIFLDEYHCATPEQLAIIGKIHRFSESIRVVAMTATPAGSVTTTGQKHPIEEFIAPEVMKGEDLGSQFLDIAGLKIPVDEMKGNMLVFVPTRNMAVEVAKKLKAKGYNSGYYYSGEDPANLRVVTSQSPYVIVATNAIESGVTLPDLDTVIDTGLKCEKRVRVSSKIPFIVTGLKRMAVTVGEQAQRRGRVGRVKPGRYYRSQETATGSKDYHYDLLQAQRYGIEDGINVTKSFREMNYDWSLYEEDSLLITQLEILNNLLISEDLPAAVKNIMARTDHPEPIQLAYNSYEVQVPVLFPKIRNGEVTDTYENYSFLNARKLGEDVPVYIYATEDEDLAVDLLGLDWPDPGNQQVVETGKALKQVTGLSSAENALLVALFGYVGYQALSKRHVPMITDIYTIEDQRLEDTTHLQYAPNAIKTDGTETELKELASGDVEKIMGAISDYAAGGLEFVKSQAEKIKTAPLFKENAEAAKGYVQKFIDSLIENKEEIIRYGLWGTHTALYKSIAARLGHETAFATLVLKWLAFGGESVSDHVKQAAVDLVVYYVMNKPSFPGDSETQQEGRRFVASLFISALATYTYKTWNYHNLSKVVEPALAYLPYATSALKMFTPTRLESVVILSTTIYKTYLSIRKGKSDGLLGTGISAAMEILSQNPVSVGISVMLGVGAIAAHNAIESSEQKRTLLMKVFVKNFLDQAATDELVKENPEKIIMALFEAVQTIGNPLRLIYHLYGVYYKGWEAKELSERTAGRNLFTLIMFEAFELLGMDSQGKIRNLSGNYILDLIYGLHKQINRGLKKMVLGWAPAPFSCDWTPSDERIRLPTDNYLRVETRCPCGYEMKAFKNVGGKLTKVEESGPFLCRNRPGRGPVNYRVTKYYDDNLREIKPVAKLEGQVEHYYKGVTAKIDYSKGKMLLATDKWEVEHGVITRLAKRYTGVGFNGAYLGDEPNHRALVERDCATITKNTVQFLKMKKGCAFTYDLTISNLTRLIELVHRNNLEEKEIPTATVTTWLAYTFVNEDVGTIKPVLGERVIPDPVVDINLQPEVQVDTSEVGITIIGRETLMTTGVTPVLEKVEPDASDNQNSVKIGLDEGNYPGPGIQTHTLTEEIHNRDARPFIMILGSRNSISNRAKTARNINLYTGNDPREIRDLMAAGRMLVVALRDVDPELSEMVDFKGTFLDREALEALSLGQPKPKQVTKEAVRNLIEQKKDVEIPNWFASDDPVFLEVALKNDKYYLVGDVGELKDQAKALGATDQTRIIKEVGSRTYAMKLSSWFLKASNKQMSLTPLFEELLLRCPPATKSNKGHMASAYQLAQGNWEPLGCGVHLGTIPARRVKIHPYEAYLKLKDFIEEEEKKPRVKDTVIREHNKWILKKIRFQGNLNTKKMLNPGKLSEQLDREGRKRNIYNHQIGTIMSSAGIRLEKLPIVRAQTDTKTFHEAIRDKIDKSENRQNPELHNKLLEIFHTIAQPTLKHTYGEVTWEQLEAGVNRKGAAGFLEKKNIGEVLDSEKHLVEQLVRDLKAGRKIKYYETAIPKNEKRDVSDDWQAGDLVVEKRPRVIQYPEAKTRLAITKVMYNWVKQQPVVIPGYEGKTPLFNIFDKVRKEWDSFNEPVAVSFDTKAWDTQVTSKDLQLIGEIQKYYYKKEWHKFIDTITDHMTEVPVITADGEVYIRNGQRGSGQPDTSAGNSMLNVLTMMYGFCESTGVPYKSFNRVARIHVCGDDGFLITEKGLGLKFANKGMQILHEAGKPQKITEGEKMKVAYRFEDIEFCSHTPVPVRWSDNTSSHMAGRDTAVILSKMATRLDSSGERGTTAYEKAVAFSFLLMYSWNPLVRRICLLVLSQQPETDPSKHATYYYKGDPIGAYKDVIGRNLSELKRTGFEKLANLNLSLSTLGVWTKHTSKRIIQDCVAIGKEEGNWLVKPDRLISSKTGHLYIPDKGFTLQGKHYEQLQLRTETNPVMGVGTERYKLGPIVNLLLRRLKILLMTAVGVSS
row,Binder,binding result
1,Nb5 (VHH) VHH: QVQLQESGGGSVQSGGSLRLSCAASTYTYSSGCMGWFRQAPGKEREGVATIDSDGSTTYADSVKGRFTISQDNAKNTLQLQMNSLKPEDTAMYYCAADDFWICSIIGRPGVADFRYWGQGTQVTVSS,binds
2,Nb20 (VHH) VHH: QVQLQESGGGSVQSGGSLRLSCRAVDGSGACMGWFRQAPGKEREGVAVIARDGSTNYAHSVRGRFTISQDNAKNTLYLQMNGLKPDDTAMYYCAAGPRFRSCSTSPSFYTSWGQGTQVTVSS,binds
3,Nb45 (VHH) VHH: QVQLQESGGGSVQSGGSLRLSCARSGYARRIYSMAWFRQAPGKEREGVAILNDDGNPTYAGSVKGRFTISRDNAKNTLYLQMNSLKPEDTAMYYCAADLTAQSYTRDRLLTSAYNVWGQGTQVTVSS,binds
4,Nb54 (VHH) VHH: QVQLQESGGGSVQSGGSLRLSCAASTYTYNNYCMGWFRQAPGKEREGVASIERFGHTIFADSVKGRFTISRDNTKNTLYLQMNSLKPEDTAMYYCATERPSAYCSDSFTFNYWGQGTQVTVSS,binds
5,Nb60 (VHH) VHH: QVQLQESGGGSVQPGGSLRLSCAASGFAVSSVAMSWVRQAPGKGLEWVSSINRYGFRVYADSVTGRFTISRDNAKNTLYLQLNSLKTEDTAMYYCSKDDDANWLNGRRGQGTQVTVSS,binds
6,Nb100 (VHH) VHH: QVQLQESGGGSVQSGGSLRLSCAASGYRRYCMAWFRQAPGKEREGVASIRSDGSTRYADSVKGRFSISQDNAENTLYLQMNSLKPEDTAMYYCAADSSAGCYSVHNSLLARSTYNYWGQGTQVTVSS,binds
7,Nb114 (VHH) VHH: QVQLQESGGGSVQSGGSLRLSCAASGYTYQTYSMGWFRQAPGKEREGVAAIDDDGSTMYADSVKGRFTISQDSAKNTLYLQMNSLKPEDTAVYYCAASGFRGLLEFMRNIWVDYWGQGTQVTVSS,binds
